Source: patent US20230257470A1 (published 2023)
Numbering of substitutions follows the chain as printed.

T1: human FcγRIIa type H (human, UniProt P12318 36-217)
T1 construct: also called FcgRIIaH; FcγRIIa(H)
T1 sequence: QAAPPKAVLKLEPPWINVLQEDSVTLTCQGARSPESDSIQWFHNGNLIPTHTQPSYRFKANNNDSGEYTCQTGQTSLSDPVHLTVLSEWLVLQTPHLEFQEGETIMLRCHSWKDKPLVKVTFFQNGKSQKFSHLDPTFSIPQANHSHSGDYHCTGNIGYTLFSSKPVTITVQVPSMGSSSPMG

T2: human FcγRIIa type R (human, UniProt P12318 36-217)
T2 construct: also called FcgRIIaR; FcγRIIa(R)
T2 chain: T1 sequence with H133R

T3: human FcγRIIb (human, UniProt P31994 43-217, limits assumed)
T3 construct: also called FcgRIIb; FcγIIB
T3 sequence: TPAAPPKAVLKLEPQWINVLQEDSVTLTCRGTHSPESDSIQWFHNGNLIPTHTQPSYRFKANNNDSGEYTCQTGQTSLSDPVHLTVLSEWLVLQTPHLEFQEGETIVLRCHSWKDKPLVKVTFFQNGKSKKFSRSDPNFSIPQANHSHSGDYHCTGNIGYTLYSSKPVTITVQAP

T4: human FcγRIIa(H) (human, UniProt P12318 36-217)
T4 construct: also called FcgRIIaH; FcγRIIa type H
T4 sequence: T1 sequence

T5: human FcγRIIb (human, UniProt P31994 43-217, limits assumed)
T5 construct: also called FcgRIIb; FcγIIB
T5 sequence: T3 sequence

T6: human FcγRIIa(R) (human, UniProt P12318 36-217)
T6 construct: also called FcgRIIaR; FcγRIIa type R
T6 chain: T1 sequence with H133R

B1: IL6R-BP130/IL6R-L (antibody, human IgG1, name in EU numbering)
heavy: QVQLQESGPGLVKPSETLSLTCAVSGHSISHDHAWSWVRQPPGEGLEWIGFISYSGITNYNPSLQGRVTISRDNSKNTLYLQMNSLRAEDTAVYYCARSLARTTAMDYWGEGTLVTVSSASTKGPSVFPLAPSSKSTSGGTAALGCLVKDYFPEPVTVSWNSGALTSGVHTFPAVLQSSGLYSLSSVVTVPSSSLGTQTYICNVNHKPSNTKVDKKVEPKSCDKTHTCPPCPAPDLLGGDSVFLFPPKPKDTLMISRTPEVTCVVVDVSHEDPEVKFNWYVDGVEVHNAKTKPREEQYNSTYRVVSVLTVLHQDWLNGKEYKCKMSNKALPKPIEKTISKAKGQPREPQVYTLPPSRDELTKNQVSLTCLVKGFYPSDIAVEWESNGQPENNYKTTPPVLDSDGSFFLYSKLTVDKSRWQQGNVFSCSVMHEALHNHYTQESLSLSP
light: DIQMTQSPSSLSASVGDRVTITCRASQDISSYLNWYQQKPGKAPKLLIYYTSRLHSGVPSRFSGSGSGTDFTFTISSLQPEDIATYYCQQGNTLPYTFGQGTKVEIK
notes: copies: 2 + 2
B2: IL6R-BP146/IL6R-L (antibody, human IgG1, name in EU numbering)
heavy: B1 heavy with D235E, L236Y, G239D, M325V, K328A, K332A
light: B1 light
notes: copies: 2 + 2
B3: IL6R-BP152/IL6R-L (antibody, human IgG1, name in EU numbering)
heavy: B1 heavy with L236Y, G239D, Y298D, M325V, K328A, K332R
light: B1 light
notes: the list runs over r38 and r39; copies: 2 + 2
B4: GpH7-B3/GpL16-k0 variant Q295G (antibody, human IgG1)
heavy: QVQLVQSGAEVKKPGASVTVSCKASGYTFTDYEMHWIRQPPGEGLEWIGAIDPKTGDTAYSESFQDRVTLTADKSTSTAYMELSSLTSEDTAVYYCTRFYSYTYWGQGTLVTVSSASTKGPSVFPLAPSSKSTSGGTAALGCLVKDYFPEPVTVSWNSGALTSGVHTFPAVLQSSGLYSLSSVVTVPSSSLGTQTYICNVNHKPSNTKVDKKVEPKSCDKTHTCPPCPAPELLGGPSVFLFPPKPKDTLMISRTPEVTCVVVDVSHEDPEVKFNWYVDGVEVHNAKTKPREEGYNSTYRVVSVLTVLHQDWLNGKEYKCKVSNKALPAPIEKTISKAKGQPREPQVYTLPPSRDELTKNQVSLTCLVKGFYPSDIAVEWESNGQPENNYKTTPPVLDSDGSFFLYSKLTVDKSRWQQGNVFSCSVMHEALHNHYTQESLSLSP
light: DIVMTQSPLSLPVTPGEPASISCQASESLVHSNRNTYLHWYLQKPGQSPQLLIYKVSNRFSGVPDRFSGSGSGTDFTLKISRVEAEDVGVYYCSQNTHVPPTFGQGTKVEIE
notes: also called B3 variant; copies: 2 + 2
B5: GpH7-B3/GpL16-k0 variant S298K (antibody, human IgG1)
heavy: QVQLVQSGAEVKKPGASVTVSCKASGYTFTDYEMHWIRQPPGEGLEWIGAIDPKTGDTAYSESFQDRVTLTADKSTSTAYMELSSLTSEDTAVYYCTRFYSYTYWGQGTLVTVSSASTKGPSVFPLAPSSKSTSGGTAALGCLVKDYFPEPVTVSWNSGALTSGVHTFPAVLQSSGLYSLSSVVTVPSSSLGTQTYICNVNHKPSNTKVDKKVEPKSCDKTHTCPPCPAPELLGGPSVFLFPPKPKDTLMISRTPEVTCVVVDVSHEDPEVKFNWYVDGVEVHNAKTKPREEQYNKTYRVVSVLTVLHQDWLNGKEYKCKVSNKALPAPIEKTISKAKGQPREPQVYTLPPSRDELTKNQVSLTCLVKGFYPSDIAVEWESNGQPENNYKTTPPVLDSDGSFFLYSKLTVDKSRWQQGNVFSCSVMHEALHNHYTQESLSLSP
light: B4 light
notes: as for B4
B6: GpH7-B3/GpL16-k0 variant S298R (antibody, human IgG1)
heavy: not shown
light: B4 light
notes: as for B4
B7: GpH7-B3/GpL16-k0 variant Q295N (antibody, human IgG1)
heavy: not shown
light: B4 light
notes: as for B4
B8: GpH7-B3/GpL16-k0 variant S298G (antibody, human IgG1)
heavy: not shown
light: B4 light
notes: as for B4
B9: GpH7-B3/GpL16-k0 variant Q295S (antibody, human IgG1)
heavy: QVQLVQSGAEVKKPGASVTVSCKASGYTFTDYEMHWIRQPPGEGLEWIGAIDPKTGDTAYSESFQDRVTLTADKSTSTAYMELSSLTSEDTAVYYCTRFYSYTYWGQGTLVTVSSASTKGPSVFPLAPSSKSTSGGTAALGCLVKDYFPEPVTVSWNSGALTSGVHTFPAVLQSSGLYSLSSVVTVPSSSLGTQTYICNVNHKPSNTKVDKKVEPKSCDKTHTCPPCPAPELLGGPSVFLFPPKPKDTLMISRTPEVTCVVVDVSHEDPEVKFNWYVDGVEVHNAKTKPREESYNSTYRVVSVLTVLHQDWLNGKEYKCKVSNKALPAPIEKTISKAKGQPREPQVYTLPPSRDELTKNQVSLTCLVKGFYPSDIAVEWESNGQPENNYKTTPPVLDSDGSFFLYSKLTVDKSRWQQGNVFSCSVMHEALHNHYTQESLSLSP
light: B4 light
notes: as for B4
B10: GpH7-B3/GpL16-k0 variant Q295H (antibody, human IgG1)
heavy: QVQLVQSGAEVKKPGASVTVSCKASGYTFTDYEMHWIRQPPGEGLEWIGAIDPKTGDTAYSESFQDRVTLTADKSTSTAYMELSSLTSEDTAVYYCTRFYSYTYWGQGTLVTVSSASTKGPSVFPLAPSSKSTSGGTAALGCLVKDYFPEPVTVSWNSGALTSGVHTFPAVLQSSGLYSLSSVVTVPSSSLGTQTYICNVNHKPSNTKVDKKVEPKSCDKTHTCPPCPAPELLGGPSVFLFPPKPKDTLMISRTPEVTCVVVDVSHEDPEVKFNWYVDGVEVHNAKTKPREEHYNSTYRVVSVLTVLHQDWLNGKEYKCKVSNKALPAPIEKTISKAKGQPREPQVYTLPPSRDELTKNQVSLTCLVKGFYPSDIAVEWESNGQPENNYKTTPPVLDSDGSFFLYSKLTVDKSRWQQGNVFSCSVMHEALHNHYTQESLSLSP
light: B4 light
notes: as for B4
B11: GpH7-B3/GpL16-k0 variant Y296K (antibody, human IgG1)
heavy: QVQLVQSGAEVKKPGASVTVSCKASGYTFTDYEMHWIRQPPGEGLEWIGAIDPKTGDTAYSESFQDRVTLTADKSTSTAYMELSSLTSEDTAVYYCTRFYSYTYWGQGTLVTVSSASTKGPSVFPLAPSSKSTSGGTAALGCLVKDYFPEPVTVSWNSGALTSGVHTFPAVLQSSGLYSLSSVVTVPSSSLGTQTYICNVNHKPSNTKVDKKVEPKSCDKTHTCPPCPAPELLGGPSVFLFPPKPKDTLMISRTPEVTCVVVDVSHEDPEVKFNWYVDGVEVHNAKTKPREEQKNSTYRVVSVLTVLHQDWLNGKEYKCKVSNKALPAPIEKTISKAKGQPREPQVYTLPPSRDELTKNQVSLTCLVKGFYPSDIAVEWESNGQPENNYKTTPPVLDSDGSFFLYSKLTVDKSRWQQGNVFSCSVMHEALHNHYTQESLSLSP
light: B4 light
notes: as for B4
B12: GpH7-B3/GpL16-k0 variant S298Y (antibody, human IgG1)
heavy: not shown
light: B4 light
notes: as for B4
B13: GpH7-B3/GpL16-k0 variant Q295W (antibody, human IgG1)
heavy: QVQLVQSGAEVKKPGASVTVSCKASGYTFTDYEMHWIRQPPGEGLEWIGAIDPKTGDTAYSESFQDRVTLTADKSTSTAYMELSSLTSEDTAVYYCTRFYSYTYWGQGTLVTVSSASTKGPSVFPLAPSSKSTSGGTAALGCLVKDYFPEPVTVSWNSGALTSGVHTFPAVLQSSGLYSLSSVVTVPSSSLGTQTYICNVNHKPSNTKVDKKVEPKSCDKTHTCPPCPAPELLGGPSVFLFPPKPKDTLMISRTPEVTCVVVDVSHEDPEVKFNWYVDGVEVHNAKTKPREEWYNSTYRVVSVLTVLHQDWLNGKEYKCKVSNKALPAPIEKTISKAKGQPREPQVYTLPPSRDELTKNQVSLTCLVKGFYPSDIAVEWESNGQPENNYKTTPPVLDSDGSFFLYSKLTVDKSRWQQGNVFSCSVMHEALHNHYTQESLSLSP
light: B4 light
notes: as for B4
B14: GpH7-B3/GpL16-k0 variant Q295Y (antibody, human IgG1)
heavy: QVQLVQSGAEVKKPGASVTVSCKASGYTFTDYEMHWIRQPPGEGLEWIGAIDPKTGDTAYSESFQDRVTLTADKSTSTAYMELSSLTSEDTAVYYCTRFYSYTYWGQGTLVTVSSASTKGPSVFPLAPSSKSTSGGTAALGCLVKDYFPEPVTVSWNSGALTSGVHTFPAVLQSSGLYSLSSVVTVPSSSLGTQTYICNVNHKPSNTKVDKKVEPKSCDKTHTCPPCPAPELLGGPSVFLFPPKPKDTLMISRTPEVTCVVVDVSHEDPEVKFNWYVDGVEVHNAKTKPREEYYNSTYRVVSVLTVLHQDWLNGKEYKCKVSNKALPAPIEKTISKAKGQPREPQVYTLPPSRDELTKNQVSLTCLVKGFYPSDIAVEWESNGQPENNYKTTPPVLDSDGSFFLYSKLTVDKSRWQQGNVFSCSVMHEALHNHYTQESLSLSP
light: B4 light
notes: as for B4
B15: GpH7-B3/GpL16-k0 variant Y296G (antibody, human IgG1)
heavy: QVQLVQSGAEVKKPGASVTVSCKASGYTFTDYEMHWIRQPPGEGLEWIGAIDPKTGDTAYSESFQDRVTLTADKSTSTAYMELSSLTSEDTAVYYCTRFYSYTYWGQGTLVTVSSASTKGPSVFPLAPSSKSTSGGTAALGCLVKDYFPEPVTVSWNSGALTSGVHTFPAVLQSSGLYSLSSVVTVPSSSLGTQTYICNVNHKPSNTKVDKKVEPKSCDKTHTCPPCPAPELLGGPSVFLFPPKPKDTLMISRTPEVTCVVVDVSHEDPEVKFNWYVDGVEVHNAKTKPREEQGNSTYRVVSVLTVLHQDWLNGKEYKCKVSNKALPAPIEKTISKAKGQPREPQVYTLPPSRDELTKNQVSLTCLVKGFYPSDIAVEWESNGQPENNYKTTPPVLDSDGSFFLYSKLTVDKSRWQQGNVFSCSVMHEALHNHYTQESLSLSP
light: B4 light
notes: as for B4
B16: GpH7-B3/GpL16-k0 variant S298P (antibody, human IgG1)
heavy: not shown
light: B4 light
notes: as for B4
B17: GpH7-B3/GpL16-k0 variant Q295R (antibody, human IgG1)
heavy: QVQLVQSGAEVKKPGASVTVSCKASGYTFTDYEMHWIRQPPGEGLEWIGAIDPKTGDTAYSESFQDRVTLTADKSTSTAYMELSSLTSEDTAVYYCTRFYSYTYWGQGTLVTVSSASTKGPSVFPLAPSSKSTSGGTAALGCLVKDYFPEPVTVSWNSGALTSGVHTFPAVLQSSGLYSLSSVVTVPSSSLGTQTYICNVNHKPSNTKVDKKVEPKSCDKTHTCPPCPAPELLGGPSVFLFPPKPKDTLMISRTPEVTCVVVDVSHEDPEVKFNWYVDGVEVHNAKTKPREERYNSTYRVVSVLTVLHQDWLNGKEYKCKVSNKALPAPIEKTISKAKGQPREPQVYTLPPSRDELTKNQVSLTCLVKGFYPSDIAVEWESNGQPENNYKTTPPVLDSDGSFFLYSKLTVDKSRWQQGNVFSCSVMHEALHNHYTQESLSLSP
light: B4 light
notes: as for B4
B18: GpH7-B3/GpL16-k0 variant Y296R (antibody, human IgG1)
heavy: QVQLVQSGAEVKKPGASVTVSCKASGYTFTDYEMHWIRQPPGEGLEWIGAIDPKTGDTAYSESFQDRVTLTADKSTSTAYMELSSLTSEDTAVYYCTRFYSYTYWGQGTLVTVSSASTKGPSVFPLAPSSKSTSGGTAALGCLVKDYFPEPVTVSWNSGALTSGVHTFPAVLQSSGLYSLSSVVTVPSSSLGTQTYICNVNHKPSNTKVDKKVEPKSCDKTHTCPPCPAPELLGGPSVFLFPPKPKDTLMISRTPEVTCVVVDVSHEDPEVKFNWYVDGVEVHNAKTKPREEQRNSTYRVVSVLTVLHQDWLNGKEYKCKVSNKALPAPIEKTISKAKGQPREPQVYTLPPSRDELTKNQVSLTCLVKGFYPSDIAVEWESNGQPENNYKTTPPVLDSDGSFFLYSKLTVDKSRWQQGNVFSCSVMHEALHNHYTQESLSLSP
light: B4 light
notes: as for B4

Tests used:
[1] = biological target: T1, human FcγRIIa type H; test: SPR (Biacore), FcγR over captured antibody; binding amount divided by that of IL6R-BF648/IL6R-L x 100
Description: (§1) According to the following method, relative binding activities were calculated for the results of analyzing interactions with the respective FcγRs.

[2] = biological target: T7, human FcγRIa (human, UniProt P12314 16-292, limits assumed); test: as above
T7 construct: also called FcgRIa; FcγRI (CD64)
T7 sequence (P12314 16-292 limits assumed): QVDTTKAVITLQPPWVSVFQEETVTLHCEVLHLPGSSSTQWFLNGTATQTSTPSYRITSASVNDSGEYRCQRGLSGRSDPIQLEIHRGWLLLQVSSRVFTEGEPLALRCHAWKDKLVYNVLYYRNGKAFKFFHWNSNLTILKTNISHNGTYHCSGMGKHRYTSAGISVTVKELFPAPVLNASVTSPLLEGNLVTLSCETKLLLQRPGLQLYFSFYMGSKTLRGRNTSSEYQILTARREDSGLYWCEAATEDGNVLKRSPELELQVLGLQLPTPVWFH
Description: as §1

[3] = biological target: T2, human FcγRIIa type R; test: as above
Description: as §1

[4] = biological target: T3, human FcγRIIb; test: as above
Description: as §1

[5] = biological target: T4, human FcγRIIa(H); test: SPR (Biacore), antibody captured, FcγR as analyte; amount bound / that of GpH7-B3/GpL16-k0 x 100;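 also: FcγR binding response divided by the captured antibody amount before comparison, measured at 25 °C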
Description: (§2) Interaction between each modified antibody and Fcγ receptor prepared in the manner described above was analyzed using the BIACORE™ T100 surface plasmon resonance system (GE Healthcare), BIACORE™ T200 surface plasmon resonance system (GE Healthcare), BIACORE™ A100 surface plasmon resonance system or BIACORE™ 4000 surface plasmon resonance system. HBS-EP+(GE Healthcare) was used for the running buffer, and measurements were carried out at 25° C. The chips used were chips in which antigen peptides, Protein A (Thermo Scientific), Protein A/G (Thermo Scientific) or Protein L (ACTIGEN® protein (Alltech or BioVision) were immobilized on the Series S Sensor Chip CM5 (GE Healthcare) or Series S Sensor Chip CM4 (GE Healthcare) by amine coupling, or chips in which preliminarily biotinylated antigen peptides were allowed to interact and then immobilized on the Series S Sensor Chip SA (certified) (GE Healthcare). The target antibodies were captured on these sensor chips, Fcγ receptor diluted with the running buffer was allowed to interact, followed by measurement of the amount of bound antibody. The amounts bound were compared between antibodies. However, since the amount of Fcγ receptor bound depends on the amount of captured antibody, the values used for comparison were first corrected by dividing the amount of Fcγ receptor bound by the captured amount of each antibody. Through reaction with 10 mM glycine-HCl at pH 1.5, the sensor chips were regenerated by washing off antibody captured on the sensor chips and used repeatedly.
(§3) Binding strength was evaluated according to the following method based on the results of analyzing the interaction with each FcγR. […] That value was then further multiplied by 100, and the resulting value was used as an indicator of relative binding activity to each FcγR.

[6] = biological target: T8, human FcγRIa (human, UniProt P12314 16-292, limits assumed); test: as above
T8 construct: also called FcgRIa; CD64
T8 sequence (P12314 16-292 limits assumed): as above
Description: as §2, §3

[7] = biological target: T5, human FcγRIIb; test: as above
Description: as §2, §3

[8] = biological target: T6, human FcγRIIa(R); test: as above
Description: as §2, §3

[9] = biological target: T9, human FcγRIIIa(F) (human, UniProt P08637 17-208, limits assumed); test: as above
T9 construct: also called FcgRIIIaF; FcγRIIIa allotype F158
T9 sequence (P08637 other isoform, or with tags, fused parts or gaps limits assumed): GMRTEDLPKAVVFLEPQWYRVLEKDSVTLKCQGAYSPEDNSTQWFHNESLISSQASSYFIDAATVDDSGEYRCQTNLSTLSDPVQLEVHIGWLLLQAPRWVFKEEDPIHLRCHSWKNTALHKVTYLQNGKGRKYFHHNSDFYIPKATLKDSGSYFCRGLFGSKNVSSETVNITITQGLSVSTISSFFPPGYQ
Description: as §2, §3

Binder | relative binding activity [1] | relative binding activity [2] | relative binding activity [3] | relative binding activity [4] | relative binding activity [5] | relative binding activity [6] | relative binding activity [7] | relative binding activity [8] | relative binding activity [9]
B1 | 224 relative (IL6R-BF648/IL6R-L = 100) | 104 relative (IL6R-BF648/IL6R-L = 100) | 272 relative (IL6R-BF648/IL6R-L = 100) | – | – | – | – | – | –
B2 | 203 relative (IL6R-BF648/IL6R-L = 100) | – | 445 relative (IL6R-BF648/IL6R-L = 100) | 156 relative (IL6R-BF648/IL6R-L = 100) | – | – | – | – | –
B3 | 548 relative (IL6R-BF648/IL6R-L = 100) | 34 relative (IL6R-BF648/IL6R-L = 100) | 638 relative (IL6R-BF648/IL6R-L = 100) | 178 relative (IL6R-BF648/IL6R-L = 100) | – | – | – | – | –
B4 | – | – | – | – | 41 GpH7-B3/GpL16-k0 = 100 | 89 GpH7-B3/GpL16-k0 = 100 | 28 GpH7-B3/GpL16-k0 = 100 | 36 GpH7-B3/GpL16-k0 = 100 | 55 GpH7-B3/GpL16-k0 = 100
B5 | – | – | – | – | 38 GpH7-B3/GpL16-k0 = 100 | 88 GpH7-B3/GpL16-k0 = 100 | 34 GpH7-B3/GpL16-k0 = 100 | 79 GpH7-B3/GpL16-k0 = 100 | 25 GpH7-B3/GpL16-k0 = 100
B6 | – | – | – | – | 36 GpH7-B3/GpL16-k0 = 100 | 92 GpH7-B3/GpL16-k0 = 100 | 22 GpH7-B3/GpL16-k0 = 100 | 62 GpH7-B3/GpL16-k0 = 100 | 20 GpH7-B3/GpL16-k0 = 100
B7 | – | – | – | – | 74 GpH7-B3/GpL16-k0 = 100 | 99 GpH7-B3/GpL16-k0 = 100 | 41 GpH7-B3/GpL16-k0 = 100 | 56 GpH7-B3/GpL16-k0 = 100 | 68 GpH7-B3/GpL16-k0 = 100
B8 | – | – | – | – | 43 GpH7-B3/GpL16-k0 = 100 | 100 GpH7-B3/GpL16-k0 = 100 | 68 GpH7-B3/GpL16-k0 = 100 | 89 GpH7-B3/GpL16-k0 = 100 | 59 GpH7-B3/GpL16-k0 = 100
B9 | – | – | – | – | 67 GpH7-B3/GpL16-k0 = 100 | 100 GpH7-B3/GpL16-k0 = 100 | 40 GpH7-B3/GpL16-k0 = 100 | 52 GpH7-B3/GpL16-k0 = 100 | 87 GpH7-B3/GpL16-k0 = 100
B10 | – | – | – | – | 78 GpH7-B3/GpL16-k0 = 100 | 97 GpH7-B3/GpL16-k0 = 100 | 29 GpH7-B3/GpL16-k0 = 100 | 45 GpH7-B3/GpL16-k0 = 100 | 52 GpH7-B3/GpL16-k0 = 100
B11 | – | – | – | – | 66 GpH7-B3/GpL16-k0 = 100 | 99 GpH7-B3/GpL16-k0 = 100 | 45 GpH7-B3/GpL16-k0 = 100 | 70 GpH7-B3/GpL16-k0 = 100 | 21 GpH7-B3/GpL16-k0 = 100
B12 | – | – | – | – | 35 GpH7-B3/GpL16-k0 = 100 | 100 GpH7-B3/GpL16-k0 = 100 | 23 GpH7-B3/GpL16-k0 = 100 | 33 GpH7-B3/GpL16-k0 = 100 | 71 GpH7-B3/GpL16-k0 = 100
B13 | – | – | – | – | 38 GpH7-B3/GpL16-k0 = 100 | 81 GpH7-B3/GpL16-k0 = 100 | 16 GpH7-B3/GpL16-k0 = 100 | 26 GpH7-B3/GpL16-k0 = 100 | 10 GpH7-B3/GpL16-k0 = 100
B14 | – | – | – | – | 70 GpH7-B3/GpL16-k0 = 100 | 95 GpH7-B3/GpL16-k0 = 100 | 24 GpH7-B3/GpL16-k0 = 100 | 38 GpH7-B3/GpL16-k0 = 100 | 49 GpH7-B3/GpL16-k0 = 100
B15 | – | – | – | – | 83 GpH7-B3/GpL16-k0 = 100 | 100 GpH7-B3/GpL16-k0 = 100 | 58 GpH7-B3/GpL16-k0 = 100 | 77 GpH7-B3/GpL16-k0 = 100 | 21 GpH7-B3/GpL16-k0 = 100
B16 | – | – | – | – | 0 GpH7-B3/GpL16-k0 = 100 | 15 GpH7-B3/GpL16-k0 = 100 | -1 GpH7-B3/GpL16-k0 = 100 | 0 GpH7-B3/GpL16-k0 = 100 | 0 GpH7-B3/GpL16-k0 = 100
B17 | – | – | – | – | 94 GpH7-B3/GpL16-k0 = 100 | 100 GpH7-B3/GpL16-k0 = 100 | 46 GpH7-B3/GpL16-k0 = 100 | 61 GpH7-B3/GpL16-k0 = 100 | 52 GpH7-B3/GpL16-k0 = 100
B18 | – | – | – | – | 74 GpH7-B3/GpL16-k0 = 100 | 100 GpH7-B3/GpL16-k0 = 100 | 52 GpH7-B3/GpL16-k0 = 100 | 77 GpH7-B3/GpL16-k0 = 100 | 38 GpH7-B3/GpL16-k0 = 100
